Laboratory results as given in the RNAGym collection of RNA variant scans (doi:10.1073/pnas.2313332121).

B1: TPR t1 (parent)
chain: GACCAAUCUGCCCUCAGAGCUCGAGAACAUCUUCGGAUGCAGAGGAGGCAGGCUUCGGUGGCGCGAUAGCGCCAACGUCCUCAACCUCCAAUGCAUCCCACCACAUGAUGAUGCCUGAAGAGCCUUGGUUUUUUG

Variants of: B1
Assay: polymerase ribozyme fitness, log enrichment relative to wild type (log ratio); higher = more active; in vitro selection for triplet polymerase activity
Procedure, shortened: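 The heterodimeric triplet polymerase ribozyme's subunits were each mutagenized into PCR-built libraries and transcribed. Every library was selected once, in triplicate, by annealing with a biotinylated primer, the partner subunit and triplets, incubating frozen at −7 °C, gel-excising extended constructs, capturing on streptavidin beads and running RT-PCR. Input and output libraries were Illumina-sequenced, with genotypes kept only at ≥10 input reads and ≥1 read per output. Fitness, from inverse-variance-weighted replicate averages, is the base-2 logarithm of genotype enrichment over wild-type enrichment.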

Row | Variant | polymerase ribozyme fitness (log ratio)
1 | GACCAAUCUGCCCUCAGAGCUCGAGAACAUCUUCGGAUGCAGAGGAGCCAGGCUUCGGUGGCGCGAUAGCGCCAACGUCCUCAACCUCCAAUGGAUCCCACCACAUGAUGAUGCUUGAAGAGCCUUGGUUUUUUG [G48C C94G C115U] | -3.03
2 | GACCAAUCUGCCCUCAGAGCUCGAGAACAUCUUCGGAUGCAGAGGAGACAGGCUUCGGUGGCGCGAUAGCGCCAACGUCCUCAACCACCAAUGCAUCCCACCACAUGAUGAUGCCUGAACAGCGUUGGUUUUUUG [G48A U87A G120C C124G] | 0.521
3 | GACCAAUCUGCCCUCAGAGCUCGAGAACAUCUUCGGAUGCAGAGGAGCCAGGCUUCGGUGGCGCGAUAGCGCCAACGUCCUCAACCUCCACGGCAUCCCACCACAUGAUGAUGCCUGAAAAGCUUUGGUCUUUUG [G48C A91C U92G G120A C124U U130C] | -1.63
4 | GACCAAUCUGCCCUCAGAGCUCGAGAACAUCUUCGGAUGCAGAGGAGCGAGGCUUCGGUGGCGCGAUAGCGCCAACGUCCUCAUCCUCCAAUGCAUCCCACCACAUGAUGAUGCCUGAAGAGCUUUGGUUUUUUG [G48C C49G A84U C124U] | -1.8
5 | GACCAAUCUGCCCUCAGAGCUCGAGAACAUCUUCGGAUGCAGAGGAGCCAGGCUUUGGUGGCGCGAUAGCGCCAACGUCCUCAAUCUCCAAUGCAUCCCACCACAUGAUGAUGCCUGAAGAGCCUGGGUUUUUUG [G48C C56U C85U U126G] | -2.57
6 | GACCAAUCUGCCCUCAGAGCUCGAGAACAUCUUCGGAUGCAGAGGAGCCAGGCUUCGGUGGCGCGAUAGCGCCAACGUCCUCAAACUCCAAUGCAUCCCACCACAUGAUGAUGCCUGAAGAGCCUUGGUUUUUUG [G48C C85A] | -2.11
7 | GACCAAUCUGCCCUCAGAGCUCGAGAACAUCUUCGGAUGCAGAGGAGCCAGGCUUCGGUGGAGCUAUAGCGCCAACGCCCUCAACCUCCAAUGCAUCCCACCACAUGAUGAUGCCUGAAGAGCCUUGGUCUUUUG [G48C C62A G65U U78C U130C] | -4.95
8 | GACCAAUCUGCCCUCAGAGCUCGAGAACAUCUUCGGAUGCAGAGGAGACAGGCUUCGGAGGCGCGAUACCGCCAACGUCCUCAUCCUCCAAUGCAUCCCACCACAUGAUGAUGCCUGCAGAGCCUUGGUUUUUUG [G48A U59A G69C A84U A118C] | -3.45
9 | GACCAAUCUGCCCUCAGAGCUCGAGAACAUCUUCGGAUGCAGAGGAGCCAGGCUUCGGCGGCGCGAUAGCGCCAACGUCCUCCACCUCCAAUGCAUCCCACCACAUGAUGAUGACUGAAGAGCCUUGGUUUUUUG [G48C U59C A83C C114A] | -2.11
10 | GACCAAUCUGCCCUCAGAGCUCGAGAACAUCUUCGGAUGCAGAGGAGACAGGCUUCGGAGGCGCGAUAGCGGCAACGUCCUCAACCUCCAAUGCAUCCCACCACAUGAUGAUGCCUGAAUAGCCUUGGUUUUUUA [G48A U59A C72G G120U G135A] | -2.76
11 | GACCAAUCUGCCCUCAGAGCUCGAGAACAUCUUCGGAUGCAGAGGAGCCAGGCUUCGGUGGCGCGAUAGCGCCAACGUCCUCAACCACCAAUGCAUCCCACCACAUGAUGAUGCCUGAAGAGCCUUGGUUUUUUG [G48C U87A] | -1.01
12 | GACCAAUCUGCCCUCAGAGCUCGAGAACAUCUUCGGAUGCAGAGGAGACAGGCUUCGGAGGCGCGAUAGCGCCAACGUCCUCAACCUCCAAUGCAUCCCACCACAUGAUGAUGCCUGAAGAGCCUUGGUUUUUUG [G48A U59A] | -0.703
13 | GACCAAUCUGCCCUCAGAGCUCGAGAACAUCUUCGGAUGCAGAGGAGCCAGGCUUCGGUGGCGCGAUAGCGCCAACGUCCUCAACCUCCAAUGCAUCCCACCACAUGAUGAUGCCUGAAGAGCCUUGGUUUUUUU [G48C G135U] | -1.05
14 | GACCAAUCUGCCCUCAGAGCUCGAGAACAUCUUCGGAUGCAGAGGAGCCAGGCUUCGGUGGUGCGAUAGCGCCAACGUCCUCAACCGCCAAUGCAUCCCACCACAUGAUCAUGCCAGAAGAGCCUUGGUUUUUUG [G48C C62U U87G G110C U116A] | -6.41
15 | GACCAAUCUGCCCUCAGAGCUCGAGAACAUCUUCGGAUGCAGAGGAGACAGGCUUCGGUGGCGCGAUAGCGCCAACGUCCUCAACCUCCAAUGCAUCCCACCACAUGAUGAUGCCUGAAGAGCCUUGGUUUUUUU [G48A G135U] | -1.08
16 | GACCAAUCUGCCCUCAGAGCUCGAGAACAUCUUCGGAUGCAGAGGAGCCAGGCUUCGGUGGCGCGAUAGCGCCAACGUCCUCAACCUCCAAUGCAUCCCACCACAUGAUAAUGCCUGAAGAGCCUUGGUUUUUUG [G48C G110A] | -1.41
17 | GACCAAUCUGCCCUCAGAGCUCGAGAACAUCUUCGGAUGCAGAGGAGCCAGGCUUCGGUGGCGCGAUAGCGCCAACGUCCUCAACCUCCAAUGCAUGCCACCACAUGAUGAUGCCUGAAGAGCCUUGGUUUUUUG [G48C C97G] | -4.14
18 | GACCAAUCUGCCCUCAGAGCUCGAGAACAUCUUCGGAUGCAGAGGAGCCAGGCUUCGGUGCCGCGAUAGCGCCAACGUCCUCAACCUCCAAUGCAUCCCACCACAUGAUGAUGCCUGAAGAGGCUUGGUUUUUUG [G48C G61C C123G] | -0.406
19 | GACCAAUCUGCCCUCAGAGCUCGAGAACAUCUUCGGAUGCAGAGGAGACAGGCUUCGGUGGCGCGAUAGCGCCAACGUCCUCAACCACCAAUGCAACCCACCACAUGAUGAUGCCUGAAGAGCCUUGGUUUUUUG [G48A U87A U96A] | -1.88
20 | GACCAAUCUGCCCUCAGAGCUCGAGAACAUCUUCGGAUGCAGAGGAGCCAGGCUUCGGUGGCGCGAUAGCGCCAACUUCCUCAACCUCUAAUGCAUCCCACCACAUGAUGAUGCCUGAAGAGUCUUGGUUUUUUG [G48C G77U C89U C123U] | -0.348
21 | GACCAAUCUGCCCUCAGAGCUCGAGAACAUCUUCGGAUGCAGAGGAGCCAGGCUUCGGUAGCGCGAUAGCGCCAACGUCCUCAACCUCCAAUACAUCCCACCACAUGAUGAUGCCUGAAGAGCCUUGGUUUUUUG [G48C G60A G93A] | -0.836
